Assay results: US11306156

Legend:
[1] = biological target: tissue factor (TF) antigen (UniProt P13726); experiment: SPR (ProteOn), Fab captured on anti-penta-His, TF analyte, 1:1 fit; * estimated from a Fab differing only in the L chain tag
[2] = biological target: tissue factor (TF) antigen (UniProt P13726); experiment: SPR KD against wild-type D3H44 Fab (reference KD 0.157 nM)
[3] = biological target: tissue factor (TF) antigen (UniProt P13726); experiment: SPR KD against wild-type D3H44 Fab; * estimated value (estimated wild-type KD […])
[4] = biological target: tissue factor (TF) antigen (UniProt P13726); experiment: SPR (ProteOn), Fab captured on anti-penta-His, TF analyte, 1:1 fit
[5] = biological target: tissue factor (TF) antigen (UniProt P13726); experiment: SPR, Fab captured on anti-penta-His, TF as analyte, 1:1 fit; batch C (+)
[6] = biological target: tissue factor (TF) antigen (UniProt P13726); experiment: vs wild-type D3H44 Fab (KD 0.157 nM); SPR, Fab captured on anti-penta-His, TF as analyte; batch C (+)
[7] = biological target: tissue factor (TF) antigen (UniProt P13726); experiment: SPR, Fab captured on anti-penta-His surface, TF as analyte, 1:1 fit; estimated value, from a Fab that differs only in the L chain tag
[8] = biological target: tissue factor (TF) antigen (UniProt P13726); experiment: SPR, Fab captured on anti-penta-His surface, TF as analyte, 1:1 fit; estimated value, from a Fab that differs only in the L chain tag; against wild-type D3H44 Fab
[9] = biological target: tissue factor (TF) antigen (UniProt P13726); experiment: SPR, Fab captured on anti-penta-His surface, TF as analyte, 1:1 fit; Fab batch C
[10] = biological target: tissue factor (TF) antigen (UniProt P13726); experiment: SPR, Fab captured on anti-penta-His surface, TF as analyte, 1:1 fit; Fab batch C; against wild-type D3H44 Fab

Chain of tissue factor (TF) antigen (P13726 33-251 limits assumed): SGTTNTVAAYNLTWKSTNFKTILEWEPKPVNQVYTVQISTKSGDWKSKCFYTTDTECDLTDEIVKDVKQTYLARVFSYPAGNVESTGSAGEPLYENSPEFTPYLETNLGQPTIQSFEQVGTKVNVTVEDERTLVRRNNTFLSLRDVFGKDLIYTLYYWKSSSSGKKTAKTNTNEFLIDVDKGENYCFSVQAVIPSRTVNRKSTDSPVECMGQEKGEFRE

Substance | Kd [1] | Change in KD with respect to wild type (-(log(KD design) - log(KD wt))) [3] | Kd [5] | change in median KD compared to wild type, -(log(KD design)-log(KD wt)) [6] | Kd [7] | change in median KD compared to wild type, -(log(KD design)-log(KD wt)) [8] | other results
D3H44 Fab heterodimer, H: L143E_K145T_Q179E, L: Q124R_T178R (H1L1 Fab of LCCA sets 9663, 9666, 9667, 9671, 9675, 9679 and 9682) | 0.27 nM | -0.23 | – | – | – | – | Change in KD with respect to wild type (-(log(KD design) - log(KD wt))) [2]: -0.23; Kd [4]: 0.27 nM
H1L1 Fab heterodimer of LCCA sets 9801 and 9802 (D3H44 Fab, H1 Q179R, L1 Q124E_Q160E_T178E) | – | – | 0.11 nM | 0.16 | – | – | –
D3H44 Fab heterodimer, H: L143E_K145T_Q179D, L: Q124R_T178K (H1L1 Fab of LCCA set 9629) | 0.12 nM | 0.12 | – | – | – | – | –
D3H44 H1L1 Fab heterodimer of LCCA Set # 9657 (H1 L143E_K145T_Q179E; L1 Q124R_T178K) | – | – | – | – | 0.19 nM | -0.08 | Kd [9]: 0.19 nM; change in median KD compared to wild type, -(log(KD design)-log(KD wt)) [10]: -0.08
D3H44 Fab heterodimer, H: L143E_K145T_Q179D, L: Q124R_Q160K_T178R (H1L1 Fab of LCCA set 9623) | 0.06 nM | 0.39 | – | – | – | – | –

Now from value to substance, other results behind:

Kd [1] | Change in KD with respect to wild type (-(log(KD design) - log(KD wt))) [3] | Kd [5] | change in median KD compared to wild type, -(log(KD design)-log(KD wt)) [6] | Kd [7] | change in median KD compared to wild type, -(log(KD design)-log(KD wt)) [8] | Substance | other results
– | – | 0.15 nM | 0.02 | – | – | H1L1 Fab heterodimer of LCCA set 9654 (D3H44 Fab, H1 L143E_K145T_Q179E, L1 Q124R_Q160K_T178R) | –
– | – | – | – | 0.24 nM | -0.19 | D3H44 H1L1 Fab heterodimer of LCCA Set # 9707 (H1 L143E_K145T_S188L; L1 Q124R_Q160K_T178R) | –
– | – | 0.06 nM | 0.39 | – | – | H1L1 Fab heterodimer of LCCA set 9620 (D3H44 Fab, H1 L143E_K145T_Q179D, L1 Q124R_Q160K_T178R) | –
– | – | – | – | 0.12 nM | 0.12 | D3H44 H1L1 Fab heterodimer of LCCA Set # 9626 (H1 L143E_K145T_Q179D; L1 Q124R_T178K) | Kd [9]: 0.12 nM; change in median KD compared to wild type, -(log(KD design)-log(KD wt)) [10]: 0.12
